# In the Human Domainome abundance scans (Beltran et al. 2025):
# ± gives the uncertainty stated by the source.
# B1: RanBP-type and C3HC4-type zinc finger-containing protein 1, residues 369 to 411; numbered along this chain, Q9BYM8 (parent)
# chain: YHCKTPDCKGWCFFEDDVNEFTCPVCFHVNCLLCKAIHEQMNC
# Variants of: B1
# Experiment: abundance fitness (aPCA) (normalised: wild type 0, dead -1); higher = more abundant; growth selection in yeast, the domain comes from the species named
# Details: Homo sapiens
row,Variant,abundance fitness
1,YHCKTPDCKGWCFFEDDVNEFRCPVCFHVNCLLCKAIHEQMNC [T22R],-0.126 ± 0.041
2,YHCKTPDCKGWCFFEDDVNEFTCPVCFHVNCSLCKAIHEQMNC [L32S],-0.295 ± 0.055
3,YHCKTSDCKGWCFFEDDVNEFTCPVCFHVNCLLCKAIHEQMNC [P6S],-0.266 ± 0.069
4,YHCKTPDCKGWCFFGDDVNEFTCPVCFHVNCLLCKAIHEQMNC [E15G],-0.204 ± 0.039
5,YHCKTPDCKGWCFFEDDVNEFTCPVCFHVNCLYCKAIHEQMNC [L33Y],-0.088 ± 0.22
6,YHCKTPDCKGWCFFENDVNEFTCPVCFHVNCLLCKAIHEQMNC [D16N],-0.171 ± 0.1
7,YHCKTPDCKGWCFFEDDVNEFTCPVCFHVNCLLSKAIHEQMNC [C34S],-0.488 ± 0.052
8,YHCKTPDCKGWCFFEDDVNEFTCPVCFHVNCPLCKAIHEQMNC [L32P],-0.525 ± 0.063
9,YHCKTPQCKGWCFFEDDVNEFTCPVCFHVNCLLCKAIHEQMNC [D7Q],-0.194 ± 0.065
10,YHCKEPDCKGWCFFEDDVNEFTCPVCFHVNCLLCKAIHEQMNC [T5E],-0.184 ± 0.061
11,YHCKTPDCKGWCFFEDDQNEFTCPVCFHVNCLLCKAIHEQMNC [V18Q],0.06 ± 0.065
12,YHCKTPDCKGWCFFEDDVNTFTCPVCFHVNCLLCKAIHEQMNC [E20T],-0.119 ± 0.057
13,YHCKTPDCKGWCFFEDDVNEFTCPVCFHVNCLLCKAIHEQMNY [C43Y],-0.424 ± 0.12
14,YHCKTPDCKGWCFFEDDVNEFTCPVCFHVNCLLCKAIHERMNC [Q40R],-0.022 ± 0.04
15,YHCKTPDCKGWCFFEDDVKEFTCPVCFHVNCLLCKAIHEQMNC [N19K],0.09 ± 0.065
16,YHCKTPDCKGWCFFEDDVNEFTCPVCFHVNCLLCYAIHEQMNC [K35Y],-0.273 ± 0.061
17,YHCKTPDCKGWCFFEDDVNRFTCPVCFHVNCLLCKAIHEQMNC [E20R],-0.255 ± 0.045
18,YHCKTPDRKGWCFFEDDVNEFTCPVCFHVNCLLCKAIHEQMNC [C8R],-0.908 ± 0.055
19,YHCKTPDCKGWCTFEDDVNEFTCPVCFHVNCLLCKAIHEQMNC [F13T],-0.084 ± 0.13
20,YHSKTPDCKGWCFFEDDVNEFTCPVCFHVNCLLCKAIHEQMNC [C3S],-0.831 ± 0.082

row,Variant,abundance fitness
1,YHCKTPDCKGWCFFEDDVNEFTCEVCFHVNCLLCKAIHEQMNC [P24E],-0.277 ± 0.067
2,YHCKTPDCKGWCFFEDDVNEMTCPVCFHVNCLLCKAIHEQMNC [F21M],-0.188 ± 0.079
3,YHCKTPDCKGWCKFEDDVNEFTCPVCFHVNCLLCKAIHEQMNC [F13K],-0.084 ± 0.11
4,YHCKTPDCKGWCFFEDDVNEFTCPVCFHVNCLLCKAIQEQMNC [H38Q],-0.63 ± 0.06
5,YHCKTPDCKGWCFFEDDVNEFTCPVCFHVNCLLCKAIHEQFNC [M41F],-0.2 ± 0.11
6,YHCKTPDCKGWCFFEDDVNEFTCPVCFHVNCLLGKAIHEQMNC [C34G],-0.467 ± 0.044
7,YHCKTPDCKGWCFFEDDVNEFTCPVCFHVNCLLCTAIHEQMNC [K35T],-0.281 ± 0.042
8,YHCKTPDCKGWCFFEDDVNEFTCPVCFHQNCLLCKAIHEQMNC [V29Q],-0.311 ± 0.074
9,YHCKTPDCKGWCFFEDDVNEFKCPVCFHVNCLLCKAIHEQMNC [T22K],-0.102 ± 0.083
10,YHCKTPDCKGWCFFEDVVNEFTCPVCFHVNCLLCKAIHEQMNC [D17V],0.034 ± 0.055
11,YHCKTPDCKGWCFFEDDVNELTCPVCFHVNCLLCKAIHEQMNC [F21L],-0.45 ± 0.048
12,YHCKTPDCKGWCFFEDDVNEFPCPVCFHVNCLLCKAIHEQMNC [T22P],-0.413 ± 0.17
13,YHCKTPDCKGWCFFEDDVNEFTCPVCFHVNCLLCKAIHEQMNN [C43N],-0.511 ± 0.15
14,YCCKTPDCKGWCFFEDDVNEFTCPVCFHVNCLLCKAIHEQMNC [H2C],-0.103 ± 0.069
15,YHCKTHDCKGWCFFEDDVNEFTCPVCFHVNCLLCKAIHEQMNC [P6H],-0.434 ± 0.12
16,YYCKTPDCKGWCFFEDDVNEFTCPVCFHVNCLLCKAIHEQMNC [H2Y],0.105 ± 0.07
17,YHCKTPDCKGWCFFEDDVNEFTCPVCFHVNCLLCKAIHEQMRC [N42R],-0.008 ± 0.046
18,YHCKTPDCKGWCFFEDDVNEFTCPVHFHVNCLLCKAIHEQMNC [C26H],-0.537 ± 0.14
19,YHCKTPDCKGWCFFEDDVNEFTCPVCFHVNCLLCKAIHEHMNC [Q40H],-0.031 ± 0.076
20,YHCKTPMCKGWCFFEDDVNEFTCPVCFHVNCLLCKAIHEQMNC [D7M],-0.202 ± 0.062

row,Variant,abundance fitness
1,YHCKTPDCKGWCFFEDDVNEFTCPVCFHVNCLLCKAIHEQMNK [C43K],-0.37 ± 0.074
2,YHCKTPDCKGWCFFEDDVNEATCPVCFHVNCLLCKAIHEQMNC [F21A],0.083 ± 0.043
3,YHCKTPDCKGWCFFEDDVREFTCPVCFHVNCLLCKAIHEQMNC [N19R],0.014 ± 0.04
4,YHCKTPDCKGWCFFEDDVNEFTCPVCFHVNCLLCKAIHEQMNV [C43V],-0.396 ± 0.071
5,YHCKTPDCKGWCFFEDDVNEFTCPVCFYVNCLLCKAIHEQMNC [H28Y],-0.489 ± 0.11
6,YHCKTPDCKGWCFFEDDVNEFTCPVCFHTNCLLCKAIHEQMNC [V29T],-0.108 ± 0.059
7,YHCKTPDCKGWCFFEDDVNEFTCPVCFHVNCLLCKAILEQMNC [H38L],-1.14 ± 0.11
8,YHCKTPDCKGWCFFEDDVNEFTCPVCFHVNCLLCKAIHTQMNC [E39T],0.021 ± 0.051
9,IHCKTPDCKGWCFFEDDVNEFTCPVCFHVNCLLCKAIHEQMNC [Y1I],0.051 ± 0.2
10,YHCKTPDCKGWCFFEDDVNEFTCPVCFHVECLLCKAIHEQMNC [N30E],-0.891 ± 0.099
11,YHCKTCDCKGWCFFEDDVNEFTCPVCFHVNCLLCKAIHEQMNC [P6C],-0.709 ± 0.1
12,GHCKTPDCKGWCFFEDDVNEFTCPVCFHVNCLLCKAIHEQMNC [Y1G],-0.331 ± 0.049
13,YHCKTPDCKGWCFFEDDVNEFTCPVMFHVNCLLCKAIHEQMNC [C26M],-1.05 ± 0.42
14,YHCKTPDCKPWCFFEDDVNEFTCPVCFHVNCLLCKAIHEQMNC [G10P],-0.723 ± 0.14
15,YHCKTPDMKGWCFFEDDVNEFTCPVCFHVNCLLCKAIHEQMNC [C8M],-0.843 ± 0.086
16,YHCKTPDCKGWCFFEDDVNEFTCPVCFHVNCLLCKAIHEQNNC [M41N],0.114 ± 0.062
17,YHCKTPDCKGWCFFEDDVNEFTCPVWFHVNCLLCKAIHEQMNC [C26W],-1.07 ± 0.093
18,YHCKTPDCKGWCFFEDDVNEFTCPVCFHVNCLLCKAIHEQMQC [N42Q],0.304 ± 0.099
19,YHCKTPDCKGWCFFEDDVNEFTCPTCFHVNCLLCKAIHEQMNC [V25T],-0.36 ± 0.064
